In one assay the target is HLA-B*07:02. The assay is described as follows: IEDB peptide-MHC binding, purified MHC/competitive/fluorescence; filed as Kd, often an IC50 or EC50 that approximates it; ≥ and ≤ were set here for values at or beyond the usual limits of such assays. To be noted: source organism: Francisella tularensis subsp. tularensis SCHU S4.
Regarding FPNINFSPEV, the Kd (usually the concentration at which binding is half-saturated) is no less than 5000 nM.

In the case of FPQANLTGGI, the Kd was 2140 nM. Sequence APAWFQASA registered a Kd of no less than 5000 nM.

The target of a further assay is HLA-B*07:02. The assay is described as follows: IEDB peptide-MHC binding, purified MHC/direct/fluorescence; filed as Kd, often an IC50 or EC50 that approximates it; ≥ and ≤ were set here for values at or beyond the usual limits of such assays. Conditions: source organism: Francisella tularensis.
For APFANTYSAL, the Kd came to 22 nM.

Staying with this assay, now noted: source organism: Francisella tularensis subsp. tularensis SCHU S4.
The sequence VPRKPLLSYI had a Kd of 38 nM. Same read-out and setting: under FPICSVFKFL stands 251 nM; under LPRYNIATSV, 3 nM. Consider APYPNVVEM, for which the Kd is 127 nM. In the case of FPATGQNIYM, the Kd was determined as 588 nM.

As to IPMTLTASPL, the Kd was determined as 4 nM. Still for that read-out and setting: in the case of SPQANNLYL it was 74 nM; in that of IPRTMLPLSL, 3 nM; in that of TPNGNIPTL, 46 nM.

For the sequence SPMGPLAVSF, the Kd came to 18 nM. Still for that read-out and setting: under FPINLNSSQL stands 62 nM; under APAFVVIADL, 114 nM. Same read-out and setting: under MPVSRQISRM stands 665 nM; under SPMEHSKRI, 62 nM. FPKAFINIV registered a Kd of 151 nM. On the same count and under the same terms, in the case of FPICSTYKFL it was 226 nM.

In the next assay the target is HLA-A*24:02. Described as above. To be noted: source organism: Francisella tularensis subsp. tularensis SCHU S4.
Regarding IYNNYDVLF, the dissociation constant Kd was found to be 23 nM. The same measure, in the same setting: under LYSENGHFSW stands 18 nM; under AYVKNGYFEI, 76 nM; under LYQPLLDLL, 30 nM. For NYNNLDDKF, the Kd worked out at 3 nM. On the same count and under the same terms, in the case of KYWNNHRQGI it was 435 nM; in that of PYLKQGIEF, 8 nM. In the case of YYLDRGYLDF, the Kd was 10 nM.

SYDRWGIPI: the Kd was determined as 33 nM.

In the case of TYPNSQQQTL, the Kd worked out at 180 nM.

For NYQKWTAPL, the Kd is 5 nM. Take SYSYLVYLI: the Kd turned out to be 3 nM.

For the sequence RYTDSEYFVI, the Kd came to 15 nM. The same measure, in the same setting: in the case of IFWQFHQLL it was 10 nM.

Consider SYTFTQTFF, for which the Kd came out at 24 nM.

Turning to PYLKSFLSF, the Kd was found to be 20 nM. Same read-out and setting: in the case of NYVDSAQLAF it was 9 nM.

As for IYSDKGLLF, the Kd came out at 4 nM.

In turn, WYTNLDTDKF came in with a Kd of 255 nM. On the same count and under the same terms, in the case of TYTSTLHPRL it was 200 nM.

The next assay deals with HLA-A*02:01. Described as above. To be noted: source organism: Francisella tularensis.
With QLVGRVFAGL, the Kd was determined as 2 nM.

Staying with this assay, now noted: source organism: Francisella tularensis subsp. tularensis SCHU S4.
For the sequence GLNLVVSSSV, the Kd was determined as 20 nM. Same read-out and setting: under RLIGHISTL stands no more than 1 nM; under FLSPNQVTNV, no more than 1 nM; under QLWPEEIGV, no more than 1 nM. Regarding IMSSFEFQV, the dissociation constant Kd was no more than 1 nM. On the same count and under the same terms, in the case of KLLGQINLV it was no more than 1 nM; in that of WLGETFHGL, no more than 1 nM.

ILLPWFVDL returned a Kd of no more than 1 nM.

FLMPFMHYIV showed a Kd of no more than 1 nM. WLGNHGFEV: the Kd is no more than 1 nM. GTDGFPFKL: the Kd stood at 24 nM. KLAKKVLSRV came in with a Kd of 10 nM.

In the case of KIDSTSFSV, the Kd was no more than 1 nM. On the same count and under the same terms, in the case of KLLPEGYWV it was no more than 1 nM; in that of GIDGNVTFTV, no more than 1 nM. On the same count and under the same terms, in the case of KLWGLVDFV it was no more than 1 nM. In the case of KLGGYVSFV, the Kd was no more than 1 nM. The same measure, in the same setting: under LMWDNVGLV stands no more than 1 nM; under ILDPKTGLV, 15 nM. Same read-out and setting: under VLPGVVVPIV stands 15 nM; under NLDTSPFFV, no more than 1 nM. Same read-out and setting: under FLSNVGHYV stands no more than 1 nM.
